# Results taken from the supplement of paper PMC10126150.
# ± gives the standard deviation of the averaged measurements.
# System: ATP
# Assay: switch fluorescence ratio, 500 uM ATP over buffer (Cy3 cluster intensity, sum of 5 cycles each) (fold (ratio)); higher = stronger signal-on switching upon ATP binding; sequences stand for … in TCGTCGGCAGCGTCAGATGTGTATAAGAGACAGTTTTTTTTTTTTTTTTTTTTTTTTT…TC
# Conditions: aptamer strand: ATP DNA aptamer (quencher-CACCTGGGGGAGTATTGCGGAGGAAGG + anchor), 100 nM annealed; ATP concentration: 500 uM
# Method in brief: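 For every switch-domain sequence, the fluorescence ratio is the mean of per-cluster values, each being summed target-cycle Cy3 intensity over summed buffer-cycle Cy3 intensity. Clusters outside 100-1000 RFU were excluded. On a modified Illumina MiSeq flow-cell, the Cy3-labelled switching-strand clusters were annealed to 100 nM quencher-labelled ATP aptamer, imaged in selection buffer and then after 15 min with 500 uM ATP at 22 °C. Five such cycles were run, with NaOH stripping and re-annealing between them.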
# 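Also: ATP exposure 15 min at 22 °C before imaging.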
sequence,measurement,value
GGTATTGGAG,switch fluorescence ratio,0.984 ± 0.015
TAAGGACGAC,switch fluorescence ratio,1.02 ± 0.026
AGACGGGATG,switch fluorescence ratio,0.973 ± 0.084
AACGATAAAT,switch fluorescence ratio,1.03 ± 0.014
TTTAGGTTTT,switch fluorescence ratio,1.01 ± 0.021
TGCCAGTACG,switch fluorescence ratio,1.064 ± 0.0044
AGTTAGGACA,switch fluorescence ratio,1 ± 0.031
TGGGTGTCTG,switch fluorescence ratio,0.9826 ± 0.0043
TAATTGTAGG,switch fluorescence ratio,0.98 ± 0.032
ATTTAGGATT,switch fluorescence ratio,1.01 ± 0.018
TGTGTACAGG,switch fluorescence ratio,0.978 ± 0.017
AGCTTTTTGC,switch fluorescence ratio,1.02 ± 0.038
TTTCCCAAAA,switch fluorescence ratio,1.04 ± 0.08
CAGCAGAGGT,switch fluorescence ratio,1.02 ± 0.013
TTAAAATATC,switch fluorescence ratio,0.99948 ± 0.00018
CATTACAGGG,switch fluorescence ratio,1.01 ± 0.023
AATGTTTTAC,switch fluorescence ratio,0.97 ± 0.035
ATACACATAG,switch fluorescence ratio,1.04 ± 0.014
TTACGGCATG,switch fluorescence ratio,1.03 ± 0.014
TAGTAATTGG,switch fluorescence ratio,0.987 ± 0.029
GGCAGAAAAA,switch fluorescence ratio,0.9949 ± 0.0018
GAGATTTTTT,switch fluorescence ratio,1.018 ± 0.0091
TAGACCTCCC,switch fluorescence ratio,1.81 ± 0.16
ATTATTAACG,switch fluorescence ratio,0.993 ± 0.033
TTTATCCTTT,switch fluorescence ratio,0.98 ± 0.025
TTTGTGGGCC,switch fluorescence ratio,1.03 ± 0.093
TATGGAGTTA,switch fluorescence ratio,0.986 ± 0.027
TTTGTATTAC,switch fluorescence ratio,1.32 ± 0.38
AATAGGTTTT,switch fluorescence ratio,1.02 ± 0.011
AGAAATACGG,switch fluorescence ratio,1.21 ± 0.063
ATAATCTATC,switch fluorescence ratio,0.995 ± 0.045
TATCAATTTT,switch fluorescence ratio,1 ± 0.03
GCCTAATGGT,switch fluorescence ratio,0.993 ± 0.016
GAATGGGATC,switch fluorescence ratio,0.9698 ± 0.0059
TTGACTAT,switch fluorescence ratio,1.005 ± 0.0027
CGTTGACGCG,switch fluorescence ratio,1.02 ± 0.016
CCAACAGGGA,switch fluorescence ratio,1.112 ± 0.0014
GGGGGGGCGT,switch fluorescence ratio,0.996 ± 0.032
TACTTCAAGG,switch fluorescence ratio,1.02 ± 0.03
TCTCAATGCG,switch fluorescence ratio,1.02 ± 0.065
TTTAGTACCT,switch fluorescence ratio,1.2 ± 0.044
TTTTGTTGCA,switch fluorescence ratio,1.038 ± 0.0056
AGGAGCTAGT,switch fluorescence ratio,1.01 ± 0.038
ACTTAGGTAA,switch fluorescence ratio,1.01 ± 0.024
TGGTTTGTGG,switch fluorescence ratio,0.974 ± 0.037
GGCTGGTGTG,switch fluorescence ratio,1.02 ± 0.029
TCTAAGGTTA,switch fluorescence ratio,1 ± 0.02
TAGCTCAGGG,switch fluorescence ratio,1.065 ± 0.0032
TGGGGTTAAG,switch fluorescence ratio,0.977 ± 0.025
TTCAAAGATG,switch fluorescence ratio,0.9743 ± 0.0021
AGGAAGTTGG,switch fluorescence ratio,0.97916 ± 0.00082
ACTGCGAATT,switch fluorescence ratio,1.07 ± 0.023
AAGGTACTAC,switch fluorescence ratio,1.03 ± 0.065
GTGCTCTTAC,switch fluorescence ratio,1.11 ± 0.014
CATCGCATCT,switch fluorescence ratio,1.79 ± 0.056
CGGAAAGTGT,switch fluorescence ratio,0.996 ± 0.024
GTCACTAGTG,switch fluorescence ratio,1.028 ± 0.0026
ATTTTGTTAG,switch fluorescence ratio,0.998 ± 0.011
TACGTTTTTT,switch fluorescence ratio,1.05 ± 0.07
TAAAGGTTGG,switch fluorescence ratio,0.962 ± 0.025
ATACAAGGCT,switch fluorescence ratio,1.02 ± 0.03
AATGGTTTGT,switch fluorescence ratio,0.999 ± 0.025
TTAGGGCTTT,switch fluorescence ratio,1.01 ± 0.035
GGAAGGGGGG,switch fluorescence ratio,1.01 ± 0.024
CTCAATCTTG,switch fluorescence ratio,0.971 ± 0.043
AACGGCGCTA,switch fluorescence ratio,1.045 ± 0.0057
CGCACCATGC,switch fluorescence ratio,2.41 ± 0.073
CAGAGAAAGG,switch fluorescence ratio,0.997 ± 0.014
TAATGGGTAA,switch fluorescence ratio,1.01 ± 0.065
TCGGGTGGGA,switch fluorescence ratio,1.05 ± 0.058
AGGGTTGGG,switch fluorescence ratio,1.03 ± 0.029
TTGAGGTGGG,switch fluorescence ratio,1.23 ± 0.41
GGTTAGGCGG,switch fluorescence ratio,0.954 ± 0.015
ACTCGGAGCG,switch fluorescence ratio,1.01 ± 0.038
ACAAGGGGCA,switch fluorescence ratio,1.01 ± 0.028
AGTAAAAGCG,switch fluorescence ratio,1.04 ± 0.017
CGAGGCTCGT,switch fluorescence ratio,1.02 ± 0.065
AAGGGTCCAC,switch fluorescence ratio,0.9907 ± 0.0079
GCGCCCGTGG,switch fluorescence ratio,1.01 ± 0.034
GTAAGTAAAA,switch fluorescence ratio,1.03 ± 0.089
GGGATCGTAA,switch fluorescence ratio,0.987 ± 0.016
GGAAGGGATG,switch fluorescence ratio,1 ± 0.026
AGGAGAATGT,switch fluorescence ratio,1.02 ± 0.011
TTGGGGGTTA,switch fluorescence ratio,1.02 ± 0.019
GGGGGTAGAG,switch fluorescence ratio,0.988 ± 0.015
GCGCCAGGCG,switch fluorescence ratio,0.998 ± 0.025
GGTTTCAGAT,switch fluorescence ratio,0.975 ± 0.016
GATGTTGAAT,switch fluorescence ratio,0.998 ± 0.021
GAAGGCCCGG,switch fluorescence ratio,0.99 ± 0.062
GGTTTCATAG,switch fluorescence ratio,0.976 ± 0.013
TGGCGGACGT,switch fluorescence ratio,1 ± 0.0081
TCACATTTTT,switch fluorescence ratio,0.99 ± 0.076
TTCGATGCGG,switch fluorescence ratio,1.02 ± 0.036
GGGGGGTT,switch fluorescence ratio,0.9904 ± 0.005
AGATTGATCG,switch fluorescence ratio,1.02 ± 0.015
TTTTGGTCTG,switch fluorescence ratio,1.01 ± 0.031
GGCATGCCAT,switch fluorescence ratio,0.9908 ± 0.0077
AGGATGACAG,switch fluorescence ratio,0.998 ± 0.04
TGTGGGTTTG,switch fluorescence ratio,0.958 ± 0.012
AGTAGGGGT,switch fluorescence ratio,1.02 ± 0.054
CGGGGTGGGT,switch fluorescence ratio,0.978 ± 0.028
CCGAATTTT,switch fluorescence ratio,1.02 ± 0.037
CGAAGAGGTG,switch fluorescence ratio,1.07 ± 0.021
AGGGTTGAGA,switch fluorescence ratio,0.985 ± 0.033
TAGGTGTTTT,switch fluorescence ratio,1.05 ± 0.047
ATGGATTTAG,switch fluorescence ratio,1.014 ± 0.008
CAATCATGG,switch fluorescence ratio,1.01 ± 0.019
TGGATTTCGG,switch fluorescence ratio,1.016 ± 0.0065
AAATTAATCC,switch fluorescence ratio,1.04 ± 0.038
TTGTTTATAG,switch fluorescence ratio,0.985 ± 0.03
TTACCTAGAG,switch fluorescence ratio,1.04 ± 0.038
CTTTAGTACG,switch fluorescence ratio,0.9734 ± 0.0012
AAGTTTGTTA,switch fluorescence ratio,0.995 ± 0.042
GCATGAGGGA,switch fluorescence ratio,0.993 ± 0.019
TTTGATCACG,switch fluorescence ratio,1.02 ± 0.031
GGGTGAGGTT,switch fluorescence ratio,0.997 ± 0.021
TGACCCTTCT,switch fluorescence ratio,1.14 ± 0.05
GAATAAAGAG,switch fluorescence ratio,0.966 ± 0.034
ACGACCGACA,switch fluorescence ratio,1.95 ± 0.29
TCAGAGGGTT,switch fluorescence ratio,1.01 ± 0.031
TTTTAAGTTT,switch fluorescence ratio,0.978 ± 0.027
GGTGAATGGC,switch fluorescence ratio,1.03 ± 0.017
ATCATGGGTA,switch fluorescence ratio,0.9757 ± 0.0069
AAATTTTTGC,switch fluorescence ratio,1.05 ± 0.015
TTTAATAAGG,switch fluorescence ratio,0.9962 ± 0.0027
TGCATGTGTC,switch fluorescence ratio,0.99 ± 0.035
GGGGAGGCCC,switch fluorescence ratio,0.998 ± 0.031
GAGGAGACGT,switch fluorescence ratio,1.03 ± 0.019
AGACCTCATA,switch fluorescence ratio,1.02 ± 0.021
TCGGGCTGTG,switch fluorescence ratio,1.02 ± 0.05
AAGTGCTTTT,switch fluorescence ratio,1.01 ± 0.052
CGAAGGTTAG,switch fluorescence ratio,0.987 ± 0.024
GGAGGGCGGG,switch fluorescence ratio,1.02 ± 0.021
TGTACTAGGA,switch fluorescence ratio,0.968 ± 0.018
ATATTCAGGG,switch fluorescence ratio,1.01 ± 0.031
TATGTAATTG,switch fluorescence ratio,0.965 ± 0.058
CGAAGTTATA,switch fluorescence ratio,1.19 ± 0.038
ATGATAAATT,switch fluorescence ratio,0.963 ± 0.04
GCTGGTACAG,switch fluorescence ratio,1 ± 0.022
GTCGTCCGGG,switch fluorescence ratio,0.986 ± 0.028
TAGGGTTCTT,switch fluorescence ratio,1.03 ± 0.029
TTTGCGAACA,switch fluorescence ratio,1.06 ± 0.079
GAAAAGATTG,switch fluorescence ratio,0.972 ± 0.024
ATATGAGGCG,switch fluorescence ratio,1.05 ± 0.042
TCTTAGAGGT,switch fluorescence ratio,0.983 ± 0.026
TTATGATAGC,switch fluorescence ratio,0.965 ± 0.044
TTACCTCTGC,switch fluorescence ratio,1.39 ± 0.067
CGGCGCGGAT,switch fluorescence ratio,1.02 ± 0.04
TAGGGATTCT,switch fluorescence ratio,0.995 ± 0.026
CAGGGTTGGC,switch fluorescence ratio,1.03 ± 0.012
GGGCTTATGA,switch fluorescence ratio,1.018 ± 0.0044
TCGATGTTGT,switch fluorescence ratio,0.987 ± 0.03
GGTAACGGGG,switch fluorescence ratio,1.06 ± 0.065
CTGATTATCT,switch fluorescence ratio,0.989 ± 0.02
CTTGGTTTAG,switch fluorescence ratio,1.01 ± 0.035
GTGTGGTGCA,switch fluorescence ratio,0.9802 ± 0.0045
ATGTATTCGA,switch fluorescence ratio,0.996 ± 0.027
